{"source": "paper PMC3733929", "about": "“Analysis of Mutations in Neurospora crassa ERMES Components Reveals Specific Functions Related to β-Barrel Protein Assembly and Maintenance of Mitochondrial Morphology” (PLoS ONE, 2013)", "proteins": {"B1": {"name": "Mmm1-HA (N. crassa Mmm1 with a C-terminal triple hemaglutinin epitope tag) (natural protein, Neurospora crassa, UniProt Q9P353 1-415, looked up)", "chain": "MADICPSRSEPTLSFTQGLILGQLSVVLLLAAFIKFFIFGDPPSPEVVASIRATDRRSRTLAHKKSILSLRETNALQLVQNPALNKKHVLRPGPPILTIGSILSKTYYKVDSHQPESLDWFNVLIAQTIAQFRSDAQHDDAILSSLSKALNGTARPDFLDEIKVTELSLGEDFPIFSNCRIIPVDEDGLSFGTGKAFDANMATREGARLQARMDVDLSDMITLAVETKLLLNYPKRLSAVLPVALAVSVVRFSGTLSISFIPSNPSNNEPAKMIFTFLDDYRLDFSIRSLLGSRSRLQDVPKIAQLVESRLHRWFDERCVEPRFQEIALPNMWPRKKNTRGGDETISDVERSMSKAKGVDIAKDVREEARKEIEAEAHGGADRVPDSLRYRHRPRADEEFPGAGSMPGSMPGSMP", "notes": "Mmm1, Neurospora crassa; also called HA-tagged Mmm1; Mmm1-HA3; source: N. crassa Δmmm1 transformed with pMmm1-HA (endogenous mmm1 promoter; strains Mmm1-HA3, Mmm1-HA5, Mmm1-HA8), in isolated mitochondria or post mitochondrial pellet; not shown: 3xHA, C-terminal, kept"}}, "target": "the molecule itself", "test": "non-reducing SDS-PAGE and Western blot; isolated mitochondria dissolved in cracking buffer (0.06 M Tris-HCl pH 6.8, 2.5% SDS, 5% sucrose) without β-mercaptoethanol; anti-HA blot; disulphide-bonded form at about 100 kDa"}
{"protein": "B1", "values": [{"measurement": "stoichiometry N", "result": 2}]}
